Reference: patent US20170096495A1 (Hoffmann-La Roche, published 2017)
Where two headings read alike, the source gives them in different places.

Key:
Test in all cases: cell-based or functional assay
[1] = molecular target: T1, human STEAP-1 (Six-transmembrane epithelial antigen of prostate 1) (human, UniProt Q9UHE8 1-339)
[2] = molecular target: T1, human STEAP-1 (Six-transmembrane …); remark: listed apart in the source
[3] = molecular target: T1, human STEAP-1 (Six-transmembrane …); remark: listed apart in the source
[4] = molecular target: T1, human STEAP-1 (Six-transmembrane …); remark: listed apart in the source
[5] = molecular target: T1, human STEAP-1 (Six-transmembrane …); remark: listed apart in the source
[6] = molecular target: T1, human STEAP-1 (Six-transmembrane …); remark: listed apart in the source
human CD3 = human CD3 (human, UniProt P07766 23-207)
human CD3, sequence (P07766 23-207 limits assumed): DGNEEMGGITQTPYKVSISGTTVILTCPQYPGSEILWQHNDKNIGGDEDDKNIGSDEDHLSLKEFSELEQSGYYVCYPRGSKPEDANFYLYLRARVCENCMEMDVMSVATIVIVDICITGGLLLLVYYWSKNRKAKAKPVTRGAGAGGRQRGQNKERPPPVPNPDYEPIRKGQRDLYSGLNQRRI

[7] = molecular target: T1, human STEAP-1 (Six-transmembrane …); remark: listed apart in the source

T1 sequence (Q9UHE8 whole entry): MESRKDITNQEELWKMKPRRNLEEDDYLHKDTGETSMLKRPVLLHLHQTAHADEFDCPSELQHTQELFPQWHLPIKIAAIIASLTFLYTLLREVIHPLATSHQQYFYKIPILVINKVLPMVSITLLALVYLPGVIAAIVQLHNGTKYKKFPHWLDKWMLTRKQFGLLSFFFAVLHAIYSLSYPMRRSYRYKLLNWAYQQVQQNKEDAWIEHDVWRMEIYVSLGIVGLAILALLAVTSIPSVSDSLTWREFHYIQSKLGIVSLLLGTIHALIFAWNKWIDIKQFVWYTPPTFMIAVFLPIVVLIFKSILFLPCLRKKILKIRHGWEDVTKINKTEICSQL

B1: STEAP-1 TCB Molecule F: "2+1 IgG CrossFab, inverted" with charge modifications (VH/VL exchange in CD3 binder, charge modification in STEAP-1 binders) (bispecific antibody)
heavy 1: EVQLVESGGGLVQPGGSLRLSCAVSGYSITSDYAWNWVRQAPGKGLEWVGYISNSGSTSYNPSLKSRFTISRDNSKNTLYLQMNSLRAEDTAVYYCARERNYDYDDYYYAMDYWGQGTLVTVSSASTKGPSVFPLAPSSKSTSGGTAALGCLVEDYFPEPVTVSWNSGALTSGVHTFPAVLQSSGLYSLSSVVTVPSSSLGTQTYICNVNHKPSNTKVDEKVEPKSCDKTHTCPPCPAPEAAGGPSVFLFPPKPKDTLMISRTPEVTCVVVDVSHEDPEVKFNWYVDGVEVHNAKTKPREEQYNSTYRVVSVLTVLHQDWLNGKEYKCKVSNKALGAPIEKTISKAKGQPREPQVCTLPPSRDELTKNQVSLSCAVKGFYPSDIAVEWESNGQPENNYKTTPPVLDSDGSFFLVSKLTVDKSRWQQGNVFSCSVMHEALHNHYTQKSLSLSP
heavy 2: not shown
light 1: DIQMTQSPSSLSASVGDRVTITCKSSQSLLYRSNQKNYLAWYQQKPGKAPKLLIYWASTRESGVPSRFSGSGSGTDFTLTISSLQPEDFATYYCQQYYNYPRTFGQGTKVEIKRTVAAPSVFIFPPSDRKLKSGTASVVCLLNNFYPREAKVQWKVDNALQSGNSQESVTEQDSKDSTYSLSSTLTLSKADYEKHKVYACEVTHQGLSSPVTKSFNRGEC
light 2: EVQLLESGGGLVQPGGSLRLSCAASGFTFSTYAMNWVRQAPGKGLEWVSRIRSKYNNYATYYADSVKGRFTISRDDSKNTLYLQMNSLRAEDTAVYYCVRHGNFGNSYVSWFAYWGQGTLVTVSSASVAAPSVFIFPPSDEQLKSGTASVVCLLNNFYPREAKVQWKVDNALQSGNSQESVTEQDSKDSTYSLSSTLTLSKADYEKHKVYACEVTHQGLSSPVTKSFNRGEC
- EC50 [pM] 24 h, T-cell mediated killing of LnCAP cells (LDH release, human PBMCs, E:T 10:1) [1]: 100 pM
- EC50 [pM] 24 h, T-cell mediated killing of MKN45 cells (LDH release, human PBMCs, E:T 10:1) [1]: 1500 pM

B2: STEAP-1 TCB Molecule B: "2+1 IgG CrossFab, inverted" without charge modifications (VH/VL exchange in CD3 binder) (bispecific antibody)
light: EVQLLESGGGLVQPGGSLRLSCAASGFTFSTYAMNWVRQAPGKGLEWVSRIRSKYNNYATYYADSVKGRFTISRDDSKNTLYLQMNSLRAEDTAVYYCVRHGNFGNSYVSWFAYWGQGTLVTVSSASVAAPSVFIFPPSDEQLKSGTASVVCLLNNFYPREAKVQWKVDNALQSGNSQESVTEQDSKDSTYSLSSTLTLSKADYEKHKVYACEVTHQGLSSPVTKSFNRGEC
chain 1: EVQLVESGGGLVQPGGSLRLSCAVSGYSITSDYAWNWVRQAPGKGLEWVGYISNSGSTSYNPSLKSRFTISRDTSKNTLYLQMNSLRAEDTAVYYCARERNYDYDDYYYAMDYWGQGTLVTVSSASTKGPSVFPLAPSSKSTSGGTAALGCLVKDYFPEPVTVSWNSGALTSGVHTFPAVLQSSGLYSLSSVVTVPSSSLGTQTYICNVNHKPSNTKVDKKVEPKSCDKTHTCPPCPAPEAAGGPSVFLFPPKPKDTLMISRTPEVTCVVVDVSHEDPEVKFNWYVDGVEVHNAKTKPREEQYNSTYRVVSVLTVLHQDWLNGKEYKCKVSNKALGAPIEKTISKAKGQPREPQVCTLPPSRDELTKNQVSLSCAVKGFYPSDIAVEWESNGQPENNYKTTPPVLDSDGSFFLVSKLTVDKSRWQQGNVFSCSVMHEALHNHYTQKSLSLSP
chain 2: not shown
chain 3: not shown
- EC50 [pM] 24 h, T-cell mediated lysis of LnCaP cells (LDH release) [2]: 95.7 pM
- EC50 [pM] 48 h, T-cell mediated lysis of LnCaP cells (LDH release) [2]: 22.9 pM
- EC50 [nM], activation of Jurkat-NFAT reporter cells (luminescence after 6 h) with LnCaP cells [3]: 5.73 nM

B3: STEAP-1 TCB Molecule E: "1+1 IgG CrossMab" with charge modifications (VH/VL exchange in CD3 binder, charge modification in STEAP-1 binder) (bispecific antibody)
heavy 1: EVQLVESGGGLVQPGGSLRLSCAVSGYSITSDYAWNWVRQAPGKGLEWVGYISNSGSTSYNPSLKSRFTISRDTSKNTLYLQMNSLRAEDTAVYYCARERNYDYDDYYYAMDYWGQGTLVTVSSASTKGPSVFPLAPSSKSTSGGTAALGCLVEDYFPEPVTVSWNSGALTSGVHTFPAVLQSSGLYSLSSVVTVPSSSLGTQTYICNVNHKPSNTKVDEKVEPKSCDKTHTCPPCPAPEAAGGPSVFLFPPKPKDTLMISRTPEVTCVVVDVSHEDPEVKFNWYVDGVEVHNAKTKPREEQYNSTYRVVSVLTVLHQDWLNGKEYKCKVSNKALGAPIEKTISKAKGQPREPQVCTLPPSRDELTKNQVSLSCAVKGFYPSDIAVEWESNGQPENNYKTTPPVLDSDGSFFLVSKLTVDKSRWQQGNVFSCSVMHEALHNHYTQKSLSLSP
heavy 2: not shown
light 1: DIQMTQSPSSLSASVGDRVTITCKSSQSLLYRSNQKNYLAWYQQKPGKAPKLLIYWASTRESGVPSRFSGSGSGTDFTLTISSLQPEDFATYYCQQYYNYPRTFGQGTKVEIKRTVAAPSVFIFPPSDRKLKSGTASVVCLLNNFYPREAKVQWKVDNALQSGNSQESVTEQDSKDSTYSLSSTLTLSKADYEKHKVYACEVTHQGLSSPVTKSFNRGEC
light 2: EVQLLESGGGLVQPGGSLRLSCAASGFTFSTYAMNWVRQAPGKGLEWVSRIRSKYNNYATYYADSVKGRFTISRDDSKNTLYLQMNSLRAEDTAVYYCVRHGNFGNSYVSWFAYWGQGTLVTVSSASVAAPSVFIFPPSDEQLKSGTASVVCLLNNFYPREAKVQWKVDNALQSGNSQESVTEQDSKDSTYSLSSTLTLSKADYEKHKVYACEVTHQGLSSPVTKSFNRGEC
- EC50 [pM] 24 h, STEAP-1 TCB-mediated lysis of LnCaP cells (LDH release) [4]: 1860 pM
- EC50 [pM] 48 h, STEAP-1 TCB-mediated lysis of LnCaP cells (LDH release) [4]: 1560 pM
- EC50 [nM], activation of Jurkat-NFAT reporter cells (luminescence after 6 h), presence of CHO-hSTEAP1 [5]: 0.51 nM
- EC50 [nM], activation of Jurkat-NFAT reporter cells (luminescence after 6 h), presence of LnCaP cells [5]: 0.054 nM
- EC50 [nM], activation of Jurkat-NFAT reporter cells (luminescence after 6 h), presence of CHO-hSTEAP1 [6]: 0.79 nM
- EC50 [nM], activation of Jurkat-NFAT reporter cells (luminescence after 6 h), presence of STEAP-1-negative CHO-K1 (human CD3): 18.8 nM
- EC50 (pM), activation of primary T cells with LnCaP cells, 48 h: % CD4 + CD25+ [7]: 7960 pM
- EC50 (pM), activation of primary T cells with LnCaP cells, 48 h: % CD4 + CD69+ [7]: 4310 pM
- EC50 (pM), activation of primary T cells with LnCaP cells, 48 h: % CD8 + CD25+ [7]: 5060 pM
- EC50 (pM), activation of primary T cells with LnCaP cells, 48 h: % CD8 + CD69+ [7]: 588 pM

B4: STEAP-1 TCB Molecule C: "2+1 IgG CrossFab, inverted" with charge modifications (CH1/CL exchange in CD3 binder, charge modification in STEAP-1 binders) (bispecific antibody)
light: DIQMTQSPSSLSASVGDRVTITCKSSQSLLYRSNQKNYLAWYQQKPGKAPKLLIYWASTRESGVPSRFSGSGSGTDFTLTISSLQPEDFATYYCQQYYNYPRTFGQGTKVEIKRTVAAPSVFIFPPSDRKLKSGTASVVCLLNNFYPREAKVQWKVDNALQSGNSQESVTEQDSKDSTYSLSSTLTLSKADYEKHKVYACEVTHQGLSSPVTKSFNRGEC
heavy: EVQLVESGGGLVQPGGSLRLSCAVSGYSITSDYAWNWVRQAPGKGLEWVGYISNSGSTSYNPSLKSRFTISRDTSKNTLYLQMNSLRAEDTAVYYCARERNYDYDDYYYAMDYWGQGTLVTVSSASTKGPSVFPLAPSSKSTSGGTAALGCLVEDYFPEPVTVSWNSGALTSGVHTFPAVLQSSGLYSLSSVVTVPSSSLGTQTYICNVNHKPSNTKVDEKVEPKSCDKTHTCPPCPAPEAAGGPSVFLFPPKPKDTLMISRTPEVTCVVVDVSHEDPEVKFNWYVDGVEVHNAKTKPREEQYNSTYRVVSVLTVLHQDWLNGKEYKCKVSNKALGAPIEKTISKAKGQPREPQVCTLPPSRDELTKNQVSLSCAVKGFYPSDIAVEWESNGQPENNYKTTPPVLDSDGSFFLVSKLTVDKSRWQQGNVFSCSVMHEALHNHYTQKSLSLSP
chain 1: not shown
chain 2: QAVVTQEPSLTVSPGGTVTLTCGSSTGAVTTSNYANWVQEKPGQAFRGLIGGTNKRAPGTPARFSGSLLGGKAALTLSGAQPEDEAEYYCALWYSNLWVFGGGTKLTVLSSASTKGPSVFPLAPSSKSTSGGTAALGCLVKDYFPEPVTVSWNSGALTSGVHTFPAVLQSSGLYSLSSVVTVPSSSLGTQTYICNVNHKPSNTKVDKKVEPKSC
- EC50 [pM] 24 h, T-cell mediated lysis of LnCaP cells (LDH release) [2]: 152 pM
- EC50 [pM] 48 h, T-cell mediated lysis of LnCaP cells (LDH release) [2]: 12.8 pM
- EC50 [nM], activation of Jurkat-NFAT reporter cells (luminescence after 6 h) with LnCaP cells [3]: 39.5 nM
